Experimental data taken from PMC8012715 (Nature Communications, 2021).

B1: Escherichia coli Nan repressor (NanR) (natural protein, E. coli K12, UniProt P0A8W0 1-263, looked up)
chain: MGLMNAFDSQTEDSSPAIGRNLRSRPLARKKLSEMVEEELEQMIRRREFGEGEQLPSERELMAFFNVGRPSVREALAALKRKGLVQINNGERARVSRPSADTIIGELSGMAKDFLSHPGGIAHFEQLRLFFESSLVRYAAEHATDEQIDLLAKALEINSQSLDNNAAFIRSDVDFHRVLAEIPGNPIFMAIHVALLDWLIAARPTVTDQALHEHNNVSYQQHIAIVDAIRRHDPDEADRALQSHLNSVSATWHAFGQTTNKKK
notes: NanR, GntR-type transcriptional repressor of E. coli K12; the synthesised nanR gene in pET28a; the dimer mass used (59 kDa) fits an untagged chain; Expressed with 100 uM ZnCl2; carries Zn2+; For the crystals the protein was treated in situ with chymotrypsin, and the cut limits are not known; also called wild-type NanR; E. coli NanR
B2: truncated NanR construct NanR^33–263 (domain or fragment, E. coli K12, UniProt P0A8W0 33-263, looked up)
chain: SEMVEEELEQMIRRREFGEGEQLPSERELMAFFNVGRPSVREALAALKRKGLVQINNGERARVSRPSADTIIGELSGMAKDFLSHPGGIAHFEQLRLFFESSLVRYAAEHATDEQIDLLAKALEINSQSLDNNAAFIRSDVDFHRVLAEIPGNPIFMAIHVALLDWLIAARPTVTDQALHEHNNVSYQQHIAIVDAIRRHDPDEADRALQSHLNSVSATWHAFGQTTNKKK
notes: amplified from nanR and cloned into pET28a; No tag is named

Tests used:
[1] = molecular target: the molecule itself; assay: AUC; sedimentation velocity, absorbance at 280 nm, NanR alone at 3.3, 10 and 30 uM in 20 mM Tris-HCl pH 8.0, 150 mM NaCl, 20 °C, 50,000 rpm
[2] = molecular target: the molecule itself; assay: AUC; multiwavelength sedimentation velocity (220-300 nm) of protein titrated against (GGTATA)3-repeat DNA, 50 mM sodium phosphate pH 7.4, 150 mM NaCl, 20 °C; oligomer told from the molar ratio of protein to DNA in co-migrating peaks

Protein	stoichiometry N [1]	binding result [2]
B1	2	–
B2	–	binds
